Data set [1] concerns the target T1, EV71-C 3Dpol WT (Enterovirus 71 strain …, UniProt M4QLY4 1732-2193). Put plainly: fluorescence polarization; 5 mM Mg2+; FP: 50 mM potassium glutamate pH 7.5, 50 mM arginine, 5 mM DTT, 5 mM MgCl2, 30 mM NaCl, 5% glycerol, 25 nM RNA, room temperature, at least 60 min. EC assembly:
A general note: In fluorescence polarisation assays a small probe gives low polarisation when free and higher when bound to something large.

Data set [2] concerns the target T1, EV71-C 3Dpol WT. As to the kind of experiment: crystal structure; ddCTP-soaked elongation complex; FP: 50 mM potassium glutamate pH 7.5, 50 mM arginine, 5 mM DTT, 5 mM MgCl2, 30 mM NaCl, 5% glycerol, 25 nM RNA, room temperature, at least 60 min. EC assembly:
Data set [3] deals with T1, EV71-C 3Dpol WT. Put plainly: crystal structure (1.8 A); five Mg2+; elongation complex; FP: 50 mM potassium glutamate pH 7.5, 50 mM arginine, 5 mM DTT, 5 mM MgCl2, 30 mM NaCl, 5% glycerol, 25 nM RNA, room temperature, at least 60 min. EC assembly:

B1: T31/P8F (structured_RNA)
RNA 1: GGGAGAUGAAAGUCUCCAGGUCUCUCGGAAA
RNA 2: UGUUCCGA
For the molecule B1, the Kd (usually the free concentration of one partner at which half of the binding sites on the other are occupied at equilibrium, for simple one-to-one binding) with EV71-C 3Dpol WT [1] was 180 nM.

B2: T31/P12 + ddCMP (structured_RNA)
RNA 1: B1 RNA 1
RNA 2: UGUUCCGAGAGAC
modifications: 3'-terminal 2',3'-dideoxy-C on product strand
B2: the binding result in the data set with EV71-C 3Dpol WT [2] is given as “binds”.

B3: T31/P12 (T31/P8 after GAGA incorporation) (structured_RNA)
RNA 1: B1 RNA 1
RNA 2: UGUUCCGAGAGA
For the molecule B3, the binding result in the data set with EV71-C 3Dpol WT [3] is “binds”.

Source of the values: article PMC7026628.
